In US9937235B2, “Lipidated peptides as anti-obesity agents” (USTAV ORGANICKE CHEMIE A BIOCHEMIE AKADEMIE VED CR, V.V.I, priority 2012, dated 2018):
Where no end group is shown, it is not given here. [ ]: non-standard residue; d: D form. The star is where a group is joined. 1Nal = N[C@@H](Cc1cccc2ccccc12)C(=O)O; Palmitoyl = CCCCCCCCCCCCCCCC(=O)*; Nle = CCCC[C@H](N)C(=O)O; Dap = NC[C@H](N)C(=O)O

T1: rat PrRP receptor in RC-4B/C cells (rat, UniProt Q64121 1-370)
T1 construct: whole, on cells; also called the rat receptor; GPR10
T1 sequence (looked up): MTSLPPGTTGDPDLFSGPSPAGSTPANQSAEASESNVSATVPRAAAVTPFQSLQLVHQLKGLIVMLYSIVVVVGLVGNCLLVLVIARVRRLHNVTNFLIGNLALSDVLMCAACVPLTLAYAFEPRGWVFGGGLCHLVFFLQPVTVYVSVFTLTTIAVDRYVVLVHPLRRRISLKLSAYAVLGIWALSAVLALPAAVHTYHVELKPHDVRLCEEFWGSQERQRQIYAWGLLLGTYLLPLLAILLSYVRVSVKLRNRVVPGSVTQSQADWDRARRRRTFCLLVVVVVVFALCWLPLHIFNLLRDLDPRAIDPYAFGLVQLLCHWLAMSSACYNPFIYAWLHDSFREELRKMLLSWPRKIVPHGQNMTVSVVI

B1: analog no. 6 (peptide)
peptide: [Dap](Palmitoyl)RAHQHS[Nle]ETRTPDINPAWYTGRGIRPVGRF-NH2
modifications: N-terminus assumed
SMILES: CCCCCCCCCCCCCCCC(=O)NC[C@H](N)C(=O)N[C@@H](CCCNC(=N)N)C(=O)N[C@@H](C)C(=O)N[C@@H](Cc1c[nH]cn1)C(=O)N[C@@H](CCC(N)=O)C(=O)N[C@@H](Cc1c[nH]cn1)C(=O)N[C@@H](CO)C(=O)N[C@@H](CCCC)C(=O)N[C@@H](CCC(=O)O)C(=O)N[C@H](C(=O)N[C@@H](CCCNC(=N)N)C(=O)N[C@H](C(=O)N1CCC[C@H]1C(=O)N[C@@H](CC(=O)O)C(=O)N[C@H](C(=O)N[C@@H](CC(N)=O)C(=O)N1CCC[C@H]1C(=O)N[C@@H](C)C(=O)N[C@@H](Cc1c[nH]c2ccccc12)C(=O)N[C@@H](Cc1ccc(O)cc1)C(=O)N[C@H](C(=O)NCC(=O)N[C@@H](CCCNC(=N)N)C(=O)NCC(=O)N[C@H](C(=O)N[C@@H](CCCNC(=N)N)C(=O)N1CCC[C@H]1C(=O)N[C@H](C(=O)NCC(=O)N[C@@H](CCCNC(=N)N)C(=O)N[C@@H](Cc1ccccc1)C(N)=O)C(C)C)[C@@H](C)CC)[C@@H](C)O)[C@@H](C)CC)[C@@H](C)O)[C@@H](C)O
notes: analog of rat PrRP31; also called [Dpr(palm)^1]PrRP31
B2: analog no. 1 (peptide)
peptide: [Dap]RAHQHS[Nle]ETRTPDINPAWYTGRGIRPVGRF-NH2
modifications: N-terminus assumed
SMILES: CCCC[C@H](NC(=O)[C@H](CO)NC(=O)[C@H](Cc1c[nH]cn1)NC(=O)[C@H](CCC(N)=O)NC(=O)[C@H](Cc1c[nH]cn1)NC(=O)[C@H](C)NC(=O)[C@H](CCCNC(=N)N)NC(=O)[C@@H](N)CN)C(=O)N[C@@H](CCC(=O)O)C(=O)N[C@H](C(=O)N[C@@H](CCCNC(=N)N)C(=O)N[C@H](C(=O)N1CCC[C@H]1C(=O)N[C@@H](CC(=O)O)C(=O)N[C@H](C(=O)N[C@@H](CC(N)=O)C(=O)N1CCC[C@H]1C(=O)N[C@@H](C)C(=O)N[C@@H](Cc1c[nH]c2ccccc12)C(=O)N[C@@H](Cc1ccc(O)cc1)C(=O)N[C@H](C(=O)NCC(=O)N[C@@H](CCCNC(=N)N)C(=O)NCC(=O)N[C@H](C(=O)N[C@@H](CCCNC(=N)N)C(=O)N1CCC[C@H]1C(=O)N[C@H](C(=O)NCC(=O)N[C@@H](CCCNC(=N)N)C(=O)N[C@@H](Cc1ccccc1)C(N)=O)C(C)C)[C@@H](C)CC)[C@@H](C)O)[C@@H](C)CC)[C@@H](C)O)[C@@H](C)O
notes: analog of rat PrRP31; also called [Dpr^1]PrRP31
B3: analog no. 7 (peptide)
peptide: [Dap]RAHQHS[Nle]ETRTPDINPAWYTGRGIRPVGR[1Nal]-NH2
modifications: N-terminus assumed
SMILES: CCCC[C@H](NC(=O)[C@H](CO)NC(=O)[C@H](Cc1c[nH]cn1)NC(=O)[C@H](CCC(N)=O)NC(=O)[C@H](Cc1c[nH]cn1)NC(=O)[C@H](C)NC(=O)[C@H](CCCNC(=N)N)NC(=O)[C@@H](N)CN)C(=O)N[C@@H](CCC(=O)O)C(=O)N[C@H](C(=O)N[C@@H](CCCNC(=N)N)C(=O)N[C@H](C(=O)N1CCC[C@H]1C(=O)N[C@@H](CC(=O)O)C(=O)N[C@H](C(=O)N[C@@H](CC(N)=O)C(=O)N1CCC[C@H]1C(=O)N[C@@H](C)C(=O)N[C@@H](Cc1c[nH]c2ccccc12)C(=O)N[C@@H](Cc1ccc(O)cc1)C(=O)N[C@H](C(=O)NCC(=O)N[C@@H](CCCNC(=N)N)C(=O)NCC(=O)N[C@H](C(=O)N[C@@H](CCCNC(=N)N)C(=O)N1CCC[C@H]1C(=O)N[C@H](C(=O)NCC(=O)N[C@@H](CCCNC(=N)N)C(=O)N[C@@H](Cc1cccc2ccccc12)C(N)=O)C(C)C)[C@@H](C)CC)[C@@H](C)O)[C@@H](C)CC)[C@@H](C)O)[C@@H](C)O
notes: analog of rat PrRP31

Target: T1, rat PrRP receptor in RC-4B/C cells
Assay: competition with 125I-rat PrRP31 on RC-4B/C cells; Ki by Cheng-Prusoff
Experimental: (§1) The rat pituitary cell line RC-4B/C (ATCC, Manassas, USA) was grown on 24-well plates which had their bottom coated with polyethyleneimine. The cells were grown to the optimal density of 300-450 thousand per well.
(§2) Plates were incubated for 60 minutes at room temperature. After incubation, the cells were solubilized in 0.1 mol/l solution of NaOH and the radioactivity bound to the cells was counted using a γ-counter. The experiments were performed in duplicate and repeated at least three times.
For evaluation of competitive binding experiments, the program Graph Pad Prism Software (San Diego, Calif., USA) was used. A method of nonlinear regression assuming one-site binding was used.

| Ki | Binder |
| --- | --- |
| 0.46 nM | B1 |
| 3.74 nM | B2 |
| 60.1 nM | B3 |

Target: T1, rat PrRP receptor in RC-4B/C cells
Assay: competition with 125I-rat PrRP31 on RC-4B/C cells
Experimental: as §1, §2

| % of PrRP31 binding | Binder |
| --- | --- |
| 1070% | B1 |
| 132% | B2 |
| 8% | B3 |
